The target in the data set is nsp12 (RdRp catalytic subunit);nsp8;nsp7 (SARS-CoV-2;SARS-CoV-2;SARS-CoV-2, UniProt P0DTD1;P0DTD1;P0DTD1 4393-5324;3943-4140;3860-3942, ||). The data set is described as follows: cryo-EM.

Residue numbers refer to the chain shown, from its start.

B1: scaffold 1 (RMP at -3) (structured_RNA)
RNA 1: UUUUCAUGCAUCGCGUAGGCUCAUACCGUAUUGAGACCUUUUGGUCUCAAUACGGUA
RNA 2: UGAGCCUACGCGAUG
modifications: strand 2 position 13 (written A) is remdesivir monophosphate (RMP, 1'-cyano)
For the molecule B1, the binding result is “binds”.

B2: scaffold 2 (RMP at -4) (structured_RNA)
RNA 1: B1 RNA 1 with U11C, C12U
RNA 2: UGAGCCUACGCAGUG
modifications: strand 2 position 12 (written A) is remdesivir monophosphate (RMP, 1'-cyano); oligo R-4
Regarding B2, the binding result was “binds”.

The values are drawn from publication doi:10.1101/2020.10.28.358481.
